The nature of data set [1]: Colon targeting of Cy5.5-conjugated protein in DSS-induced acute colitis mice (FACS). The note with it: mouse, in vivo, ip. The method, then:
FIGS. 6A-6D show the effect of rCT-S100A8/A9 peptide on colon targeting. […] Mice were exposed to 3% DSS for six days and evaluated on day 6 (left). For IB with αITGA6, αITGB1, or αActin, multiple organ harvests were used and ITGA6+ or ITGB1+ cell numbers were analyzed through FACS. […] Intraperitoneal administration of rCT-S100A8/9 conjugated with Cy5.5 for one hour and colon harvest. Colon harvests were used for IB including αITGA6, αITGB1, or αActin and ITGA6+ or ITGB1+ cell numbers were analyzed through FACS. […] Mice were treated with 3% DSS for six days and administered 1, 2, or 3 doses of Texas Red conjugated with rCT-S100A8/9. Colons were harvested in a time-dependent manner and analyzed for Texas Red+ cell numbers through FACS. Data is representative of three independent experiments with similar results. Data is shown as the mean±SD of three experiments;
Fourth, to further investigate the physiological significance of rCT-S100A8/A9 in inflammatory colitis, a DSS-induced colitis mouse model was used (FIG. 6). […] Next, to evaluate the specificity of rCT-S100A8/A9, ITGA6- or ITGB1-knockdown mice were generated by sh-lentivirus transduction. […] Finally, the pharmacodynamics of rCT-S100A8/A9 were evaluated, and according to the FACS analysis, 50% of the rCT-S100A8/A9 was retained in the colon when administered for three consecutive days to the mice with DSS-induced acute colitis (FIG. 6D).

Data set [2] is classed as in vitro ADME. The note with it: human, microsomes, 0.5 h. The method, then: 0.1 M phosphate buffer (pH 7.4) and S100A8/A9 peptide ([…]) or rCT-S100A8/A9 protein (10 μg/mL) were added to human liver microsomes (0.5 mg/mL). After incubation at 37° C. for five minutes, the NADPH-generating system solution was also added and incubated again at 37° C. for 30 minutes. To terminate the reaction, acetonitrile containing an internal standard (clopramide) was added, and the resulting mixture was centrifuged for five minutes (14,000 rpm, 4° C.). The supernatant was then injected into an LC-MS/MS system to analyze the microsomal stability of the tested substances.

Data set [3] relates to OxaR HCT116 xenograft. As to the kind of experiment: Parental or OxaR HCT116 xenograft tumor growth inhibition. It is filed as in vivo, mice. As for the experimental part:
For tumor xenograft experiments, 4- to 6-week-old female athymic nude mice (Central Lab Animal Inc., Seoul, Korea) were used. 1×10^6 HCT116 cells suspended in 0.1 mL of a cell culture medium were injected subcutaneously into the animals' right axillary region and observed for 7 to 10 days while the tumor volume was measured. Treatment was initiated when the tumor size reached an average volume of 200 or 600 mm^3. The tumor volume was measured with a skin caliper every three days, calculated as (tumor length)×(tumor width)^2×0.5, and expressed in mm^3. All animals were maintained in a specific pathogen-free environment. All animal-related procedures were examined and approved by the Hanyang University Institutional Animal Care and Use Committee (protocol numbers: 2022-0145 and 2022-0266).
Next, tumor growth inhibition assays were performed under various tumor growth conditions, and rCT-S100A8/A9 treatment was started according to the size of the established tumors. For initial tumor growth, rCT-S100A8/A9 treatment was started 10 days after tumor establishment, and for actively growing tumors, rCT-S100A8/A9 treatment was started 21 days after tumor establishment.

In data set [4] the test system is OxaR CRC cells (HT29, HCT116 and SW480). As to the kind of experiment: WST-8-based cell viability assay in parental and drug-resistant CRC cell lines. The source says: To establish a CRC cell model resistant to oxaliplatin, doxorubicin, or 5-FU, HT29, HT116, and SW480 cells were exposed to progressively increasing concentrations of oxaliplatin, doxorubicin, or 5-FU. The established oxaliplatin, doxorubicin, and 5-FU resistant cells were named OxaR, DoxR, and 5-FuR cells, respectively.
To confirm the inhibitory effect of rCT-S100A8/A9 on oxaliplatin resistance, the present inventors performed a water-soluble tetrazolium-8 (WST-8)-based cell viability assay using parental cells of three CRC cell lines, HT29, HCT-116 and SW480, and their corresponding oxaliplatin-resistant (OxaR) cell lines. OxaR CRC cells (HT29, HCT116 and SW480) were established by long-term exposure of CRC cells to oxaliplatin as described in Example 1.

On the set-up of data set [5]: species or system BALB/c mice. The note with it: mouse, in vivo. The method, then: FIGS. 12A-12E show biological effects of rCT-S100A8/9 in tumor-bearing mice. […] Each vertical bar represents the mean±SD of cell viability at each dose. Data is shown as the mean±SD of six experiments. […] HCT116 cells were injected subcutaneously into the flanks of BALB/c mice as described in the Methods section. Mice were administered one or two intraperitoneal doses and sacrificed on day 5. Their expression was assessed by IB in various organs of mice. WCLs were used for IB including αActin. Data is representative of four independent experiments with similar results. […] E-cadherin, N-cadherin, and β-catenin staining of the tumors. […] Mice were immunized by each route (i.v. or i.p.) every 3 days, and blood was collected on day 40. IgG levels specific for rCT-S100A8/9 or ovalbumin (OVA) were measured using ELISA. Values represent the mean optical density (OD) and standard deviation at 450 nm. Each group included five mice. […] Serum cytokine levels were measured 30 days after administration. […]
A major concern with protein therapeutics derived from endogenous human proteins is that they may induce strong anti-therapeutic antibody responses and stimulate undesirable immune responses. […] Therefore, the immunogenicity of rCT-S100A8/A9 was assessed by measuring the production of anti-rCT-S100A8/A9 antibodies in mice immunized with the peptide according to the present invention. […]

Data set [6] in a line: DSS-induced acute colitis mouse model. The note with it: treatment for three consecutive days. It is filed as in vivo, mice.
The mark [7] stands for this setting: immunostaining, vs control group.

B1: TWYKIAFQRNRKTWYKIAFQRNRKTWYKIAFQRNRKTWYKIAFQRNRKTWYKIAFQRNRKGGFLVIKGGAHKSHKGGITIITFGGGHHGGFLVIKGGAHKSHKGGITIITFGGGHHGGFLVIKGGAHKSHKGGITIITFGGGHHGG (protein)
chain: TWYKIAFQRNRKTWYKIAFQRNRKTWYKIAFQRNRKTWYKIAFQRNRKTWYKIAFQRNRKGGFLVIKGGAHKSHKGGITIITFGGGHHGGFLVIKGGAHKSHKGGITIITFGGGHHGGFLVIKGGAHKSHKGGITIITFGGGHHGG
modifications: N-terminal 6xHis tag
With B1, the tissue targeting entry in data set [1] is “specifically targeted the colon tissues of the mice with acute colitis”. Further, in data set [2], the “microsomal stability, remaining” value is recorded as 92%. For the same molecule, in data set [3] (HCT116 xenografts), the “epithelial-to-mesenchymal transition in tumors (profiler PCR array)” value is reported as “regulates the involvement of epithelial-to-mesenchymal transition”. Besides, in data set [3] (Western blot), the “interaction of S100 and PRRs in xenograft tumors” value is “significantly reduced”. In addition, in data set [3] (setting [7]), the “expression of E-cadherin in tumor sections” value is reported as “increased”; the “expression of N-cadherin and β-catenin in tumor sections” value is “decreased”. Also, the tumor growth result in data set [3] (initially growing and actively growing tumors) was “significantly inhibited tumor growth”. Besides, the “efficacy in doxorubicin-resistant (DoxR) and 5-fluorouracil-resistant (5-FuR) CRC cells” value in data set [4] (24 h cell viability) was “exhibited efficacy against multidrug resistance”. Also, in data set [4] (HT29, HCT116, SW480 OxaR, 24 hours), the “cell viability of OxaR CRC cells” value is given as “reduced the viability of OxaR CRC cells”. Also, in data set [5], the “production of specific anti-rCT-S100A8/A9 antibodies” value is recorded as “negligible compared to that induced by ovalbumin”. Besides, the “survival rate by treatment frequency” value in data set [6] was “highest survival rate”.
